# Experimental data reported in publication PMC10877577 (ACS Chemical Biology, 2024).
# “Also recorded” adds a separate entry of the source. Bridges are numbered along the chain shown (N, C = ends). Where no end group is shown, it is not given here.
# T1: GWARA CX7C peptide-muIgG2a-Fc fusion
# T1 chain: ACPGWARAFC
# T2: PWAYS CX7C peptide-muIgG2a-Fc fusion (disulfide 1-9 (inferred); also: fused to muIgG2a Fc, end not given here)
# T2 chain: CPPWAYSFC
# T3: HWAQA CX7C peptide-muIgG2a-Fc fusion (disulfide 1-9 (inferred); also: fused to muIgG2a Fc, end not given here)
# T3 chain: CPHWAQAFC
# T4: GWARA CX7C peptide-muIgG2a-Fc fusion (disulfide 2-10 (inferred); also: fused to muIgG2a Fc, end not given here)
# T4 chain: ACPGWARAFC
# T5: QWAMM CX7C peptide-muIgG2a-Fc fusion (disulfide 1-9 (inferred); also: fused to muIgG2a Fc, end not given here)
# T5 chain: CPQWAMMFC
# Key:
# [1] = system: HEK-293T transduced with the aMinoC1 transmembrane receptor; test: Flow cytometry of peptide-muIgG2a Fc binding to cells with aMinoC1 transmembrane receptor; format: cell-based, human; details: GWARA, HWAQA, PWAYS, QWAMM; increasing minocycline; caffeine 100 μM
# Method: Flow cytometry was performed using the MACSQuant Analyzer 10 or MACSQuant X (Miltenyi Biotec). All flow cytometry data was analyzed using FlowJo v.7.6.2 software (Tree Star Inc., Ashland, OR). Cell staining was carried out by incubation with PBS containing the recommended concentration of antibodies at RT for 30 min. PBS washes were carried out between antibody staining. Cell viability was determined using viability dye SYTOX Blue Dead Cell Stain (ThermoFisher) prior to flow cytometric analysis. Cells were first gated for singlet population identified by FSC-H and FSC-A. Next, live cells were identified using a viability dye, followed by gating for target cell populations. The antibodies used in the study are as follows: CD3 PECy7 (Biolegend, 317334), Human CD34 APC-conjugated antibody (R&D system, FAB7227A), Human CD34 Alexa Fluor 488-conjugated antibody (R&D system, FAB7227G), Streptavidin PE (Biolegend, 405204), APC antihuman EGFR antibody (Biolegend, 352905), Alexa Fluor 488 antihuman EGFR antibody (Biolegend, 352907), PE anti-HA.11 Epitope Tag antibody (Biolegend, 901517), Anti-M13-HRP (Sino Biologics, 1197 mm05T-H), Anti-Myc-HRP (Genscript, A00863), and SYTOX Blue Dead Cell Stain (ThermoFisher, S10274).
# [2] = system: MinoCAR-transduced PBMC against SupT1-EGFR+ target cells; format: cell-based; details: 0.1, 1 and 10 μM, 24 h, 1:2 E/T
# Method: Transduced CAR T cells were determined by staining for the transduction marker RQR8 and normalized by the addition of nontransduced T cells. Effector cells were cocultured with 5.0 × 10^4 number of target cells (SupT1-NT, SupT1-EGFR+, SKOV3-mKate) to achieve the desired effector cell to target ratio. […] Cocultures were incubated for 24–72 h at 37 °C and 5% CO2. After incubation, plates were centrifuged at 400g for 5 min, and the supernatant containing secreted cytokines was collected for cytokine analysis. Cells were stained with anti-hCD34-APC and anti-CD3-PeCy7 to differentiate effector T cells and target cells. Cells were washed with 300 μL o PBS and stained with SYTOX Blue Dead Cell Stain dye. The percentage of target cell survival was measured relative to the number of live target cells cocultured with nonspecific CAR T cells or nontransduced PBMCs.
# sdAbs = details: read-out: affinity of sdAb for hapten; cited from earlier work
# [3] = molecular target: anti-minocycline single-domain antibody clone 1 (aMinoC1 sdAb) (alpaca); test: SPR; Biacore T200; aMino sdAbs immobilized on a CM5 chip (4300-4600 RU); 1x HBS-EP+; analyte from 2.5 uM in 2-fold serial dilutions, 150 s at 30 uL/min, 150 s dissociation; 1:1 Langmuir model
# aMinoC1 sdAb = test: SPR of peptide-Fc or small-molecule analytes against aMinoC1; format: binding, alpaca; details: molecules closely related to minocycline
# Method: (§1) Binding assays were carried out using 1x HBS-EP+ running buffer. Various concentrations (2.5 μM with 2-fold serial dilutions) of the analyte were injected for 150 s at 30 μL/min with 150 s dissociation time. Glycine-HCl (pH 2.0) was used as the regeneration buffer for the sensor chips. For the rechallenge experiment, aMinoC1 was immobilized on a CM5 sensor chip and CX7C peptide-Fc conjugates were loaded at 100 nM and injected as the analyte for 150 s at 30 μL/min. Following the injection of peptide-Fc, a small molecule at 1 μM was injected for 300 s at 30 μL/min, using dual injection function on a Biacore 8k instrument, to dissociate the peptide-Fc from the aMinoC1-peptide complex. The system was then washed using HBS-P^+ buffer for 300 s at 30 μL/min prior to rechallenge with peptide-Fc. The cycle was repeated three times following a final dissociation step of 300 s. For the alanine scanning experiments, the anti-minocycline antibody (sdAb-muIgG2a-Fc fusion) was captured on a Protein A series S sensor chip, to a density of 3000 RU. […] Glycine-HCl (pH 1.5) was used as the regeneration buffer. In each case, flow cell 1 was used for reference subtraction, and a “0 concentration” sensogram of buffer alone was used as a double reference subtraction to factor for drift. Data analysis was carried out using Biacore T200 Evaluation Software, version 3.0, and Biacore Insight evaluation software. […]
# aMinoC22 sdAb = test: SPR of related small molecules against aMinoC22; format: binding, alpaca; details: molecules closely related to minocycline
# Method: as §1
# aMinoC1-peptide complex = test: SPR rechallenge: small-molecule-driven dissociation of peptide-Fc from immobilized aMinoC1; format: binding; details: peptide-Fc 100 nM, small molecule 1 μM
# Method: Binding assays were carried out using 1x HBS-EP+ running buffer. Various concentrations (2.5 μM with 2-fold serial dilutions) of the analyte were injected for 150 s at 30 μL/min with 150 s dissociation time. Glycine-HCl (pH 2.0) was used as the regeneration buffer for the sensor chips. For the rechallenge experiment, aMinoC1 was immobilized on a CM5 sensor chip and CX7C peptide-Fc conjugates were loaded at 100 nM and injected as the analyte for 150 s at 30 μL/min. Following the injection of peptide-Fc, a small molecule at 1 μM was injected for 300 s at 30 μL/min, using dual injection function on a Biacore 8k instrument, to dissociate the peptide-Fc from the aMinoC1-peptide complex. The system was then washed using HBS-P^+ buffer for 300 s at 30 μL/min prior to rechallenge with peptide-Fc. The cycle was repeated three times following a final dissociation step of 300 s. For the alanine scanning experiments, the anti-minocycline antibody (sdAb-muIgG2a-Fc fusion) was captured on a Protein A series S sensor chip, to a density of 3000 RU. […] Glycine-HCl (pH 1.5) was used as the regeneration buffer. In each case, flow cell 1 was used for reference subtraction, and a “0 concentration” sensogram of buffer alone was used as a double reference subtraction to factor for drift. Data analysis was carried out using Biacore T200 Evaluation Software, version 3.0, and Biacore Insight evaluation software. The 1:1 Langmuir binding model was used to calculate the association (ka), dissociation (kd) rate constants, and equilibrium dissociation constant (KD).
# [4] = molecular target: anti-minocycline single-domain antibody clone 1 (aMinoC1 sdAb) (alpaca)
# [5] = molecular target: anti-minocycline single-domain antibody clone 1 (aMinoC1 sdAb) (alpaca); remark: listed apart in the source
# [6] = molecular target: anti-minocycline single-domain antibody clone 1 (aMinoC1 sdAb) (alpaca); remark: listed apart in the source
# minocycline = test: SPR
# [7] = molecular target: T1, GWARA CX7C peptide-muIgG2a-Fc fusion; test: ELISA; details: chain shown with the change
# [8] = molecular target: T2, PWAYS CX7C peptide-muIgG2a-Fc fusion; test: SPR
# [9] = molecular target: T3, HWAQA CX7C peptide-muIgG2a-Fc fusion; test: SPR
# [10] = molecular target: T4, GWARA CX7C peptide-muIgG2a-Fc fusion; test: SPR
# [11] = molecular target: T5, QWAMM CX7C peptide-muIgG2a-Fc fusion; test: SPR
molecule,measurement,setting,value
Cn1c(=O)c2c(ncn2C)n(C)c1=O [caffeine],peptide-muIgG2a Fc binding to membrane-bound aMinoC1 in presence of small molecule,[1],no peptide-binding inhibition; also recorded: did not result in a decrease in peptide binding
same,effect of other small molecules on MinoCAR cytotoxicity,[2],not affected
CN(Cc1cnc2nc(N)nc(N)c2n1)c1ccc(C(=O)N[C@@H](CCC(=O)O)C(=O)O)cc1 [methotrexate],effect of other small molecules on MinoCAR cytotoxicity,[2],not affected
same,Kd,sdAbs,29 to 515 nM
PWAYS CX7C peptide-muIgG2a-Fc fusion,Kd,[3],283 nM
CC(=O)OC[C@]12[C@H](O)C(=O)C(C)=C[C@H]1O[C@@H]1[C@H](O)C[C@@]2(C)[C@]12CO2 [15-acetyl-deoxynivalenol],Kd,sdAbs,5000 to 215000 nM
C[C@H]1c2cccc(O)c2C(=O)C2=C(O)[C@]3(O)C(=O)C(C(N)=O)=C(O)[C@@H](N(C)C)[C@@H]3[C@@H](O)[C@@H]21 [doxycycline],binding to aMinoC1 (SPR),aMinoC1 sdAb,Neither sdAb showed an interaction; also recorded: lack of binding; also recorded: without cross-reactivity
same,binding to aMinoC22 (SPR),aMinoC22 sdAb,Neither sdAb showed an interaction; also recorded: lack of binding
same,GWARA-Fc dissociation from immobilized aMinoC1 on small-molecule injection,aMinoC1-peptide complex,No enhanced dissociation
same,"peptide-Fc (HWAQA, PWAYS and QWAMM) dissociation from immobilised aMinoC1 on small-molecule injection",aMinoC1-peptide complex,No enhanced dissociation
same,effect of other small molecules on MinoCAR cytotoxicity,[2],not affected
Nc1c(Cl)c(Cl)nc(C(=O)O)c1Cl [picloram],Kd,sdAbs,3000 to 354000 nM
QWAMM CX7C peptide-muIgG2a-Fc fusion,Kd,[3],209 nM
GWARA CX7C peptide-muIgG2a-Fc fusion,"IFN-y release by MinoUniCAR PBMCs (aMinoC1-CD8stk-CD28TM-CD28-41BBz) with the soluble aEGFR sdAb-GWARA adaptor, 0 uM against 10 uM minocycline",[4],1570 pg/mL
same,"IFN-γ secretion by PBMCs transduced with the aMinoC1/GWARA-MyD88/CD40 module against the SG3S-peptide negative control, no minocycline; tuned down about 2-fold by increasing minocycline",[5],520 pg/mL
same,IL12 secreted by T cells that co-express GWARA-flexi-IL12 and aMinoC1-KDEL without minocycline (retention); released up to 150 pg/mL on day 2 and 2.2 ug/mL on day 7 with minocycline up to 2.5 uM,[6],450 pg/mL
same,Kd,[3],111 nM
HWAQA CX7C peptide-muIgG2a-Fc fusion,Kd,[3],328 nM
O=C(Nc1ccc(Cl)cc1)Nc1ccc(Cl)c(Cl)c1 [triclocarbon],Kd,sdAbs,0.98 to 1.37 nM
auxin,Kd,sdAbs,500 to 20000 nM
anti-minocycline single-domain antibody clone 1 (aMinoC1 sdAb) R64A (protein) QVQLESGGGLVQPGSSLRLSCAASGRTFSSYNIGWFRQAPKEREFVAAISWSGAATYYADSVKGRFTISRDNAKNTVYLQMNSLKPEDTAVYSCAAGRGWGTEAILDYWGQGTQVSSA,ratio to parent,minocycline,1.15
same,ratio to parent,[7],0.18
anti-minocycline single-domain antibody clone 1 (aMinoC1 sdAb) S35A (protein) QVQLESGGGLVQPGSSLRLSCAASGRTFASYNIGWFRQAPKEREFVAAISWSGARTYYADSVKGRFTISRDNAKNTVYLQMNSLKPEDTAVYSCAAGRGWGTEAILDYWGQGTQVSSA,ratio to parent,minocycline,0.97
same,ratio to parent,[7],0.15
anti-minocycline single-domain antibody clone 1 (aMinoC1 sdAb) A63S (protein) QVQLESGGGLVQPGSSLRLSCAASGRTFSSYNIGWFRQAPKEREFVAAISWSGSRTYYADSVKGRFTISRDNAKNTVYLQMNSLKPEDTAVYSCAAGRGWGTEAILDYWGQGTQVSSA,ratio to parent,minocycline,0.77
same,ratio to parent,[7],0.12
anti-minocycline single-domain antibody clone 1 (aMinoC1 sdAb) W58A (protein) QVQLESGGGLVQPGSSLRLSCAASGRTFSSYNIGWFRQAPKEREFVAAISASGARTYYADSVKGRFTISRDNAKNTVYLQMNSLKPEDTAVYSCAAGRGWGTEAILDYWGQGTQVSSA,ratio to parent,minocycline,1.06
same,ratio to parent,[7],0.25
anti-minocycline single-domain antibody clone 1 (aMinoC1 sdAb) G40A (protein) QVQLESGGGLVQPGSSLRLSCAASGRTFSSYNIAWFRQAPKEREFVAAISWSGARTYYADSVKGRFTISRDNAKNTVYLQMNSLKPEDTAVYSCAAGRGWGTEAILDYWGQGTQVSSA,ratio to parent,minocycline,1.7
same,ratio to parent,[7],0.23
anti-minocycline single-domain antibody clone 1 (aMinoC1 sdAb) R108A (protein) QVQLESGGGLVQPGSSLRLSCAASGRTFSSYNIGWFRQAPKEREFVAAISWSGARTYYADSVKGRFTISRDNAKNTVYLQMNSLKPEDTAVYSCAAGAGWGTEAILDYWGQGTQVSSA,ratio to parent,minocycline,0.88
same,ratio to parent,[7],0.17
anti-minocycline single-domain antibody clone 1 (aMinoC1 sdAb) R28A (protein) QVQLESGGGLVQPGSSLRLSCAASGATFSSYNIGWFRQAPKEREFVAAISWSGARTYYADSVKGRFTISRDNAKNTVYLQMNSLKPEDTAVYSCAAGRGWGTEAILDYWGQGTQVSSA,ratio to parent,minocycline,1.28
same,ratio to parent,[7],0.17
anti-minocycline single-domain antibody clone 1 (aMinoC1 sdAb) (VHH) VHH: QVQLESGGGLVQPGSSLRLSCAASGRTFSSYNIGWFRQAPKEREFVAAISWSGARTYYADSVKGRFTISRDNAKNTVYLQMNSLKPEDTAVYSCAAGRGWGTEAILDYWGQGTQVSSA,koff,[8],0.0056 s⁻¹
same,koff,[9],0.0058 s⁻¹
same,koff,[10],0.017 s⁻¹
same,koff,[11],0.0043 s⁻¹
